# According to patent US20140154255A1 (AbbVie / Abbott, published 2014):
# Where a chain is given by its changes, count along the chain named. In names and notes the source's numbering stands.
# B1: 85 (antibody, human IgG1, V domains shown)
# VH: EVQLVESGGGLVQPGGSLRLSCAASGYTFTFYGMNWVRQAPGKGLEWVGWINTYTGEPTYAADFKRRFTFSLDTSKSTAYLQMNSLRAEDTAVYYCAKYPEYEGSSHWYFDVWGQGTLVTVSS
# VL: DIQMTQSPSSLSASVGDRVTITCSASQDISNYLNWYQQKPGKAPKVLIYFTSSLHSGVPSRFSGSGSGTDFTLTISSLQPEDFATYYCQQYSTVPWTFGQGTKVEIKR
# B2: 86 (seventh row of Table 7) (antibody, human IgG1, V domains shown)
# VH: B1 VH with E101H, E103D, S105G
# VL: DIQMTQSPSSLSASVGDRVTITCSASQDISNYLNWYQQKPGKAPKVLIYFTSSLHSGVPSRFSGSGSGTDFTLTISSLQPEDFATYYCQQYSTVPWTFGQGTKVEIK
# notes: defined here by its substitutions; copies: 2 + 2
# B3: 95 (antibody, human IgG1, V domains shown)
# VH: B1 VH with F31N, E101D, E103Y
# VL: B1 VL
# B4: 94 (antibody, human IgG1, V domains shown)
# VH: B1 VH with E101H, E103Y, S105G
# VL: B1 VL
# B5: 92 (antibody, human IgG1, V domains shown)
# VH: B1 VH with F31N, E101P, E103Y
# VL: B1 VL
# B6: 93 (antibody, human IgG1, V domains shown)
# VH: B1 VH with F31N, E103Y
# VL: B1 VL
# B7: 90 (antibody, human IgG1, V domains shown)
# VH: B1 VH with E101D, E103Y
# VL: B1 VL
# B8: 87 (antibody, human IgG1, V domains shown)
# VH: B1 VH with E103D, S105G
# VL: B1 VL
# B9: 91 (antibody, human IgG1, V domains shown)
# VH: B1 VH with E101H, E103Y
# VL: B1 VL
# B10: 96 (antibody, human IgG1, V domains shown)
# VH: B1 VH with E101P, E103Y, S105G
# VL: B1 VL
# B11: 86 (antibody, human IgG1, V domains shown)
# VH: B1 VH with E101D
# VL: B1 VL
# B12: 89 (antibody, human IgG1, V domains shown)
# VH: B1 VH with E101P, E103D
# VL: B1 VL
# B13: E 56 Q (bispecific antibody)
# VH: EVQLVESGGGLVQPGGSLRLSCAASGFTFSNFPMAWVRQAPGKGLEWVATISSSDGTTYYRDSVKGRFTISRDNAKNSLYLQMNSLRAEDTAVYYCARGYYNSPFAYWGQGTLVTVSSASTKGPEVQLVESGGGLVQPGGSLRLSCAASGYTFTNYGMNWVRQAPGKGLEWVGWINTYTGQPTYAADFKRRFTFSLDTSKSTAYLQMNSLRAEDTAVYYCAKYPHYYGSSHWYFDVWGQGTLVTVSS
# VL: DIQMTQSPSSLSASVGDRVTITCRASEDIYSNLAWYQQKPGKAPKLLIYDTNNLADGVPSRFSGSGSGTDFTLTISSLQPEDFATYYCQQYNNYPPTFGQGTKLEIKRTVAAPDIQMTQSPSSLSASVGDRVTITCSASQDISNYLNWYQQKPGKAPKVLIYFTSSLHSGVPSRFSGSGSGTDFTLTISSLQPEDFATYYCQQYSTVPWTFGQGTKVEIK
# notes: also called SS DLL4-VEGF DVD-Ig variant E56Q
# B14: E 56 T (bispecific antibody)
# VH: B13 VH with Q181T
# VL: B13 VL
# notes: also called SS DLL4-VEGF DVD-Ig variant E56T
# B15: E 56 R (bispecific antibody)
# VH: B13 VH with Q181R
# VL: B13 VL
# notes: also called SS DLL4-VEGF DVD-Ig variant E56R
# Target: T1, VEGF (R&D systems, Minneapolis, Minn.) (UniProt P15692-4 27-191, limits assumed)
# Assay: BIAcore SPR, WT/mutant
# Description: (§1) RL was kept low to minimize avidity due to the dimeric nature of VEGF. No capture of the antibody was made on the reference surface to serve as a negative control. Subsequently, VEGF was injected to all flow cells at a flow rate of 50 μL/min for two minutes to monitor association followed by a 25-minute flow of HBS-P running buffer (10 mM HEPES, 150 mM sodium chloride, 0.005% P-20, pH 7.4) to monitor the dissociation phase. At each cycle, VEGF, in 6 different concentrations of VEGF ranging between 0 nM and 512 nM and at four-fold increments, was injected over the surface. […] Binding data were fit to the 1:1 Langmuir model to extract binding constants from the BIAevaluate software. Double referencing was applied in each analysis to eliminate background responses from the reference surface and buffer only control. All the binding kinetics data were analyzed at least three separate determinations.
# T1 sequence (P15692 other isoform, or with tags, fused parts or gaps limits assumed): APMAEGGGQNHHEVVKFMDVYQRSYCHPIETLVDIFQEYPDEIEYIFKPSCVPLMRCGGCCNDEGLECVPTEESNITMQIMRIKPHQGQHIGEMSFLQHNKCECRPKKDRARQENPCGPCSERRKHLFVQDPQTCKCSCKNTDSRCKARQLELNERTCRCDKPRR
row,Δkoff,Binder
1,2 fold,B1
2,1.3 fold,B2
3,0.9 fold,B3
4,1.6 fold,B4
5,1.4 fold,B5
6,1.6 fold,B6
7,1.8 fold,B7
8,2.2 fold,B8
9,2.9 fold,B9
10,0.9 fold,B10
11,1.5 fold,B11
12,1.4 fold,B12

# Target: T1, VEGF (R&D systems, Minneapolis, Minn.)
# Assay: BIAcore SPR, mutant/WT
# Description: as §1
row,Δkon,Binder
1,6.9 fold,B1
2,5.4 fold,B2
3,1.5 fold,B3
4,1.4 fold,B4
5,2 fold,B5
6,1.6 fold,B6
7,3.6 fold,B7
8,4.6 fold,B8
9,1.2 fold,B9
10,1.3 fold,B10
11,7.4 fold,B11
12,5 fold,B12

# Target: T1, VEGF (R&D systems, Minneapolis, Minn.)
# Assay: BIAcore SPR
# Description: as §1
Kd,koff,kon,Binder
140 pM,0.000175 s⁻¹,1.25e+06 M⁻¹ s⁻¹,B1
282 pM,0.000273 s⁻¹,968000 M⁻¹ s⁻¹,B2
1540 pM,0.000396 s⁻¹,262000 M⁻¹ s⁻¹,B3
857 pM,0.00022 s⁻¹,258000 M⁻¹ s⁻¹,B4
708 pM,0.000256 s⁻¹,367000 M⁻¹ s⁻¹,B5
761 pM,0.000225 s⁻¹,292000 M⁻¹ s⁻¹,B6
311 pM,0.000197 s⁻¹,645000 M⁻¹ s⁻¹,B7
204 pM,0.00016 s⁻¹,824000 M⁻¹ s⁻¹,B8
575 pM,0.000121 s⁻¹,211000 M⁻¹ s⁻¹,B9
1750 pM,0.000379 s⁻¹,225000 M⁻¹ s⁻¹,B10
179 pM,0.000238 s⁻¹,1.33e+06 M⁻¹ s⁻¹,B11
282 pM,0.000249 s⁻¹,904000 M⁻¹ s⁻¹,B12

# Target: T2, unlabeled human VEGF (ELISA coat) (human, UniProt P15692-4 27-191, limits assumed)
# Assay: ELISA overnight, EC50 WT/EC50 mutant
# Description: (§2) To detect identified variants binding to antigen, ELISA plates (Nunc-Immuno MaxiSorp plates, Nalge Nunc, Rochester, N.Y.) were coated overnight at 4° C. with unlabeled human VEGF at 1 μg/mL in 0.2 M sodium carbonate-bicarbonate buffer (pH 9.4, Pierce, Rockford, Ill.). The plates were then blocked with SuperBlock Blocking Buffer (Pierce, Rockford, Ill.) for 30 min and washed with Washing Buffer (PBS containing 0.1% Tween 20). All the washing steps were performed for three times. […] The plates were washed and 100 μL of goat anti-human kappa HRP-conjugated antibody (Southern Biotech, Birmingham, Ala.) diluted at 1:1000 in ELISA buffer was added to each well. After 30 minutes of incubation, plates were washed and bound antibodies were detected by addition of TMB 1 Component HRP Microwell substrate (BioFx #TMBW-1000-01). The reaction was terminated by addition of 100 μL/well of 650 nM Stop Reagent for TMB Microwell substrate and the absorbance was measured at 650 nm using a VERSAmax microplate reader (Molecular Devices, Sunnyvale, Calif.). Data were fitted using nonlinear regression with the software […]
# T2 sequence (P15692 other isoform, or with tags, fused parts or gaps limits assumed): as above
row,ELISA o/n binding,Binder
1,3 fold,B3
2,1 fold,B5
3,3.6 fold,B6
4,0.3 fold,B9

# Target: T3, human VEGF-A residues 27-191 of Accession #AAV38412 (human, UniProt P15692 27-191)
# T3 construct: range 27-191
# Assay: SS DLL4-VEGF DVD-Ig format; BIAcore by paragraph 262
# Description: (§3) The binding kinetics and affinity of the antibodies for VEGF (human VEGF-A residues 27-191 of Accession #AAV38412) was determined by using a BIAcore T200 surface plasmon resonance system (BIAcore, GE Healthcare, Piscataway, N.J.). Coupling running buffer was HBS-EP+ running buffer (10 mM HEPES, 150 mM sodium chloride, 3 mM EDTA 0.05% P-20, pH 7.4); assay running buffer was HBS-EP+ with 300 mM sodium chloride and 0.1 mg/mL BSA (Sigma A7906). Polyclonal goat anti-human Fc (Thermo Scientific prod#31125) was first immobilized to the biosensor surface in 10 mM sodium acetate, pH 4.5 using standard BIAcore amine coupling reagents (N-ethyl-N′-dimethylamino-propylcarbodiimide, EDC; N-hydroxysuccinimide, NHS; and ethanolamine HCl, pH 8.5). For binding kinetics assay a series of cycles were performed, each cycle consisted of 1) mAb capture, 2) Ag or buffer injection, 3) dissociation phase and 4) regeneration. Briefly, anti-VEGF antibodies were captured on parallel surfaces at a low flow rate of 10 μL/min. Capture levels were kept low to minimize avidity due to the dimeric nature of VEGF. No capture of the antibody was made on the reference surface to serve for primary referencing and as a negative control. Subsequently, VEGF or buffer only was injected to all flow cells at a flow rate of 80 μL/min for three minutes to monitor association followed by a 20-minute flow of assay rinning buffer at a flow rate of 80 μL/min to monitor dissociation. […] At the end of each cycle the surface was regenerated with 10 mM glycine, pH 1.5 at a flow rate of 60 μL/min in pulses of 60 and 10 sec. Binding data were fit to the 1:1 Langmuir model with mass transport term included using Biacore T200 Evaluation Software to determine the binding constants.
# T3 sequence (P15692 other isoform, or with tags, fused parts or gaps limits assumed): as above
row,Affinity relative to WT,Binder
1,0.7 fold,B13
2,0.8 fold,B14
3,0.9 fold,B15

# Target: T1, VEGF (R&D systems, Minneapolis, Minn.)
# Assay: BIAcore SPR, improvement over WT
# Description: as §1
row,ΔKD,Binder
1,14.1 fold,B1
2,7 fold,B2
3,1.3 fold,B3
4,2.3 fold,B4
5,2.8 fold,B5
6,2.6 fold,B6
7,6.3 fold,B7
8,9.6 fold,B8
9,3.4 fold,B9
10,1.1 fold,B10
11,11 fold,B11
12,7 fold,B12

# Target: T3, human VEGF-A residues 27-191 of …
# Assay: BIAcore SPR, KD WT/KD mutant
# Description: as §3
row,affinity improvement,Binder
1,0.4 fold,B3
2,0.8 fold,B5
3,0.3 fold,B6
4,4.7 fold,B9

# Target: T2, unlabeled human VEGF (ELISA coat)
# Assay: ELISA 1 hr, EC50 WT/EC50 mutant
# Description: as §2
row,ELISA 1hr binding,Binder
1,4.5 fold,B3
2,2.7 fold,B5
3,4.3 fold,B6
4,0.7 fold,B9

# Target: T3, human VEGF-A residues 27-191 of …
# Assay: BIAcore SPR
# Description: as §3
Kd,koff,kon,Binder
1300 pM,0.000351 s⁻¹,270000 M⁻¹ s⁻¹,B3
522 pM,0.00021 s⁻¹,401000 M⁻¹ s⁻¹,B5
1590 pM,0.000358 s⁻¹,225000 M⁻¹ s⁻¹,B6
91 pM,2.48e-05 s⁻¹,272000 M⁻¹ s⁻¹,B9
